From PMC9461663, “Covalent Inhibition of Pyruvate Kinase M2 Reprograms Metabolic and Inflammatory Pathways in Hepatic Macrophages against Non-alcoholic Fatty Liver Disease” (International Journal of Biological Sciences, 2022)

Target: Pyruvate kinase M2 (mouse (endogenous in RAW264.7)) (UniProt P52480)
Assay: not stated; PKM2 tetramer in LPS-treated RAW264.7 cells with celastrol (Fig. S4); method not given

Pyruvate kinase M2, P52480 1-531 (enzyme; other documents disagree on this pair), sequence (P52480 whole entry): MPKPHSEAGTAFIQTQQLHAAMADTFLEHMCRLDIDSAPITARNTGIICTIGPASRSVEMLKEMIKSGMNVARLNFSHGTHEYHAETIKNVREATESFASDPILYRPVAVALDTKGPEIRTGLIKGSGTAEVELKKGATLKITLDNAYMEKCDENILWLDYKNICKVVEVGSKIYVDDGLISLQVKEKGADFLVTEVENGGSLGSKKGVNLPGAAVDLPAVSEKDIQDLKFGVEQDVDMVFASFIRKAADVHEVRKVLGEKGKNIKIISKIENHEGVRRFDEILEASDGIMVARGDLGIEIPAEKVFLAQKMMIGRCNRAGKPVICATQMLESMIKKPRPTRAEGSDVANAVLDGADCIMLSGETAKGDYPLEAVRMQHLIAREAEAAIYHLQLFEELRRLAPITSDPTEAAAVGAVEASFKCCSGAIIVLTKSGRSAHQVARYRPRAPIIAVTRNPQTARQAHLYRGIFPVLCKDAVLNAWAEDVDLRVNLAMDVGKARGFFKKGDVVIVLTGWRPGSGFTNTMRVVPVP

With “Pyruvate kinase M2, P52480 1-531 (enzyme; other documents disagree on this pair)” the stoichiometry N was 4.
